The text below walks through data of publication PMC11752098.

B1: wild-type GABRA2 (α2 subunit of the γ-aminobutyric acid A receptor), FLAG-tagged [human] / GABRG2 (γ2 subunit of the GABA-A receptor) [human (endogenous in 293T)] (parent)
chain 1: NIQEDEAKNNITIFTRILDRLLDGYDNRLRPGLGDSITEVFTNIYVTSFGPVSDTDMEYTIDVFFRQKWKDERLKFKGPMNILRLNNLMASKIWTPDTFFHNGKKSVAHNMTMPNKLLRIQDDGTLLYTMRLTVQAECPMHLEDFPMDAHSCPLKFGSYAYTTSEVTYIWTYNASDSVQVAPDGSRLNQYDLLGQSIGKETIKSSTGEYTVMTAHFHLKRKIGYFVIQTYLPCIMTVILSQVSFWLNRESVPARTVFGVTTVLTMTTLSISARNSLPKVAYATAMDWFIAVCYAFVFSALIEFATVNYFTKRGWAWDGKSVVNDKKKEKASVMIQNNAYAVAVANYAPNLSKDPVLSTISKSATTPEPNKKPENKPAEAKKTFNSVSKIDRMSRIVFPVLFGTFNLVYWATYLNREPVLGVSP
chain 2: QKSDDDYEDYASNKTWVLTPKVPEGDVTVILNNLLEGYDNKLRPDIGVKPTLIHTDMYVNSIGPVNAINMEYTIDIFFAQTWYDRRLKFNSTIKVLRLNSNMVGKIWIPDTFFRNSKKADAHWITTPNRMLRIWNDGRVLYTLRLTIDAECQLQLHNFPMDEHSCPLEFSSYGYPREEIVYQWKRSSVEVGDTRSWRLYQFSFVGLRNTTEVVKTTSGDYVVMSVYFDLSRRMGYFTIQTYIPCTLIVVLSWVSFWINKDAVPARTSLGITTVLTMTTLSTIARKSLPKVSYVTAMDLFVSVCFIFVFSALVEYGTLHYFVSNRKPSKDKDKKKKNPLLRMFSFKAPTIDIRPRSATIQMNNATHLQERDEEYGYECLDGKDCASFFCCFEDCRTGAWRHGRIHIRIAKMDSYARIFFPTAFCLFNLVYWVSYLYL
B2: wild-type GABRA2 (α2 subunit of the γ-aminobutyric acid A receptor), FLAG-tagged [human] / GABRB3 (β3 subunit of the GABA-A receptor) [human (endogenous in 293T)] (parent)
chain 1: B1 chain 1
chain 2: QSVNDPGNMSFVKETVDKLLKGYDIRLRPDFGGPPVCVGMNIDIASIDMVSEVNMDYTLTMYFQQYWRDKRLAYSGIPLNLTLDNRVADQLWVPDTYFLNDKKSFVHGVTVKNRMIRLHPDGTVLYGLRITTTAACMMDLRRYPLDEQNCTLEIESYGYTTDDIEFYWRGGDKAVTGVERIELPQFSIVEHRLVSRNVVFATGAYPRLSLSFRLKRNIGYFILQTYMPSILITILSWVSFWINYDASAARVALGITTVLTMTTINTHLRETLPKIPYVKAIDMYLMGCFVFVFLALLEYAFVNYIFFGRGPQRQKKLAEKTAKAKNDRSKSESNRVDAHGNILLTSLEVHNEMNEVSGGIGDTRNSAISFDNSGIQYRKQSMPREGHGRFLGDRSLPHKKTHLRRRSSQLKIKIPDLTDVNAIDRWSRIVFPFTFSLFNLVYWLYYVN

Variants of B1 are the subject of the first experiment. Put plainly: co-immunoprecipitation (anti-FLAG beads) with Western blot quantification. Conditions: with GABRG2 (γ2 subunit of the GABA-A receptor) [human (endogenous in 293T)]; 293T cells transfected with FLAG-tagged GABRA2-WT or GABRA2-MUT; parent: 1; read off a plot. In general terms: Immunoblotting shows a protein as a band on a membrane.
chain 1 NIQEDEAKNNITIFTRILDRLLDGYDNRLRPGLGDSITEVFTNIYVTSFGPVSDTDMEYTIDVFFRQKWKDERLKFKGPMNILRLNNLMASKIWTPDTFFHNGKKSVAHNMTMPNKLLRIQDDGTLLYTMRLTVQAECPMHLEDFPMDAHSCPLKFGSYAYTTSEVTYIWTYNASDSVQVAPDGSRLNQYDLLGQSIGKETIKSSTGEYTVMTAHFHLKRKIGYFVIQTYLPCIMTVILSQVSFWLNRESVPARTVFGVTTVLTMTTLSISARNSLPKVVYATAMDWFIAVCYAFVFSALIEFATVNYFTKRGWAWDGKSVVNDKKKEKASVMIQNNAYAVAVANYAPNLSKDPVLSTISKSATTPEPNKKPENKPAEAKKTFNSVSKIDRMSRIVFPVLFGTFNLVYWATYLNREPVLGVSP [chain 1 A280V]: the ratio to parent stood at 0.88.

The variants in the next experiment derive from B2. The description is as above. The settings on record: with GABRB3 (β3 subunit of the GABA-A receptor) [human (endogenous in 293T)]; 293T cells transfected with FLAG-tagged GABRA2-WT or GABRA2-MUT; parent: 1; read off a plot.
For the variant chain 1 NIQEDEAKNNITIFTRILDRLLDGYDNRLRPGLGDSITEVFTNIYVTSFGPVSDTDMEYTIDVFFRQKWKDERLKFKGPMNILRLNNLMASKIWTPDTFFHNGKKSVAHNMTMPNKLLRIQDDGTLLYTMRLTVQAECPMHLEDFPMDAHSCPLKFGSYAYTTSEVTYIWTYNASDSVQVAPDGSRLNQYDLLGQSIGKETIKSSTGEYTVMTAHFHLKRKIGYFVIQTYLPCIMTVILSQVSFWLNRESVPARTVFGVTTVLTMTTLSISARNSLPKVVYATAMDWFIAVCYAFVFSALIEFATVNYFTKRGWAWDGKSVVNDKKKEKASVMIQNNAYAVAVANYAPNLSKDPVLSTISKSATTPEPNKKPENKPAEAKKTFNSVSKIDRMSRIVFPVLFGTFNLVYWATYLNREPVLGVSP [chain 1 A280V], the ratio to parent was 0.87.
